{"source": "the nanobody polyreactivity screen of Harvey et al. (2022)", "data": [{"assay": "yeast display, Sf9 membrane polyspecificity reagent, FACS + sequencing; frameworks hold sequencing errors", "method_in_brief": "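A synthetic nanobody library was expressed on Saccharomyces cerevisiae BJ5465 by galactose induction for 36–48 hours. The library was stained for 1 hour at 4 °C with 10% biotinylated, detergent-solubilized Sf9 membrane reagent and enriched with streptavidin microbeads before FACS. Low and high (top ~1%) gates were set on anti-HA fluorescence for expression and streptavidin fluorescence for reagent binding, and each polyreactivity label reflects the gate of origin.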", "values": [{"sequence": "QVQLVESGGGLVQAGGSLRLSCAASGRTLYRYAMGWYRQAPGKERELVAAIRSGGRTNYSDSVKGRFTISRDNAKNTVYLQMNSLKPEDTAVYYCAARTLRYPSTYDYWGQGTQVTVSS", "polyreactivity (PSR sort gate)": "high polyreactivity"}, {"sequence": "QVQLVESGGGLVQAGGSLRLSCAASGRTLYRYAMGWYRQAPGKERELVATITTGGSTNYADSVKGRFTISRDNAKNTVYLQMNSLKPEDTAVYYCNAGILSRWVRKYYYWGQGTQVTVSS", "polyreactivity (PSR sort gate)": "low polyreactivity"}, {"sequence": "QVQLVESGGGLVQAGGSLRLSCAASGRTLYRYAMGWYRQAPGKERELVAVISWNAVGTYYADSVKGRFTISRDNAKNTVYLQMNSLKPEDTAVYYCAARKRVASQGYIRYNYWGQGTQVTVSS", "polyreactivity (PSR sort gate)": "high polyreactivity"}, {"sequence": "QVQLVESGGGLVQAGGSLRLSCAASGRTLYSNAMGWYRQSPGKERELVAAISSRGGRTYYADSVKGRFTISRDNAKNTVYLQMNSLKPVDTAVYYCNAAYGTGRRQAKSDYWGQGTQVTVSS", "polyreactivity (PSR sort gate)": "high polyreactivity"}, {"sequence": "QVQLVESGGGLVQAGGSLRLSCAASGRTLYYNTMGWYRPAPGKERELVSSIRWDGGRTYYADSVKGRFTISRDNAKNTVYLQMNSLKPEDTAVYYCAKDGCYYYGTYAYDGCFDYWGQGTQVTVSS", "polyreactivity (PSR sort gate)": "low polyreactivity"}, {"sequence": "QVQLVESGGGLVQAGGSLRLSCAASGRTLYYYAMGWYRQEPGKERELVAAISWSGGRTYYADSVKGRFTISRDNAKNTVYLQMNSLKAEDTAVYYCAAQYISRGYTVDYWGQGTQVTVSS", "polyreactivity (PSR sort gate)": "high polyreactivity"}, {"sequence": "QVQLVESGGGLVQAGGSLRLSCAASGRTNSFYAMGWYRQAPGKERELVAAISRGGTTNYADSVKGRFTISRDNAKNTVYLQMNSLKPEDTAVYYCAASYFRRGFYSIYEYDYWGQGTQVTVSS", "polyreactivity (PSR sort gate)": "low polyreactivity"}, {"sequence": "QVQLVESGGGLVQAGGSLRLSCAASGRTQAFHAMGWYRQAPGKERELVAVIRNGTSTNYADSVKGRFTISRDNAKNTVYLQMNSLKPEDTAVYYCNVPYYLPSYLSGYDYWGQGTQVTVSS", "polyreactivity (PSR sort gate)": "low polyreactivity"}, {"sequence": "QVQLVESGGGLVQAGGSLRLSCAASGRTQRYYAMGWYRQAPRKERELVAAITKSGGSTYYADSVKGRITISRDNAKNTVYLQMYSLKPEDTAVYYFNKVTYSRAQYIGGDGYYWGQGTQVTVSS", "polyreactivity (PSR sort gate)": "high polyreactivity"}, {"sequence": "QVQLVESGGGLVQAGGSLRLSCAASGRTQSRYTMGWYRQAPGKERELVAAISTSGSTYYADSVKGRFTISRDNAKNTVYLQMNSLKPEDTAVYYCNAVRRYLQYATGYDYWGQGTQVTVSS", "polyreactivity (PSR sort gate)": "high polyreactivity"}, {"sequence": "QVQLVESGGGLVQAGGSLRLSCAASGRTQYKYAMGWYRQAPGKERELVATISSGGRTKYADSVKGRFTISRDNAKNTVDLQMNSLKPEDTAVYYCAAQNRPRYYSGDYWGQGTQVTVSS", "polyreactivity (PSR sort gate)": "low polyreactivity"}, {"sequence": "QVQLVESGGGLVQAGGSLRLSCAASGRTSAINAMGWYRQAPGKERELVADITRTGGTYADSVKGRFTISRDNAKNTVYLQMNSLKPEDTAVYYCAAVGPWRFDYWGQGTQVTVSS", "polyreactivity (PSR sort gate)": "high polyreactivity"}, {"sequence": "QVQLVESGGGLVQAGGSLRLSCAASGRTSDEYAMGWYRPAPGKERELVAAITSGGSTNYADSVKGRFTISRDNAKNTVYLQMNSLKPEDTAVYYCAADNIRTWRPIYDYWGQGTQVTVSS", "polyreactivity (PSR sort gate)": "low polyreactivity"}, {"sequence": "QVQLVESGGGLVQAGGSLRLSCAASGRTSEIYTMGWYRQAPGKERELVASINTNYADSVKGRFTISRDNAKNTVYLQMNSLKPEDTAVYYCNADDTIEFNYWGQGTQVTVSS", "polyreactivity (PSR sort gate)": "low polyreactivity"}, {"sequence": "QVQLVESGGGLVQAGGSLRLSCAASGRTSFYNAMGWYRQAPGKERELVAAISYRGTRTYYADSVKGRFTISRDNAKNTVYLQMNSLKPEDTAVYYCAKDSGYYTADDYDYWGQGTQVTVSS", "polyreactivity (PSR sort gate)": "low polyreactivity"}, {"sequence": "QVQLVESGGGLVQAGGSLRLSCAASGRTSGFNTMGWYRQAPGKERELVAAISFSGGSTYYADSVKGRFTISRDNAKNTGYLQMNSLKPEDTAVYYCAAELERDEEYDYWGQGTQVTVSS", "polyreactivity (PSR sort gate)": "low polyreactivity"}, {"sequence": "QVQLVESGGGLVQAGGSLRLSCAASGRTSGNYAMGWYRQAPGKERELVAAIRYSGSSTFYADSVKGRFTISRDNAKNTVYLQMNSLKPEDTAVYYCARDIRRKGFRYDYWGQGTQVTVSS", "polyreactivity (PSR sort gate)": "high polyreactivity"}, {"sequence": "QVQLVESGGGLVQAGGSLRLSCAASGRTSKVYAMGWYRQAPGKERELVARITSSGVRTYYADSVKGRFTISRDNAKNTVYLQMNRLKPEDTAVYYCAKDARALWLHSGIYDYWGQGTQVTVSS", "polyreactivity (PSR sort gate)": "low polyreactivity"}, {"sequence": "QVQLVESGGGLVQAGGSLRLSCAASGRTSLAYAMGWYRQAPGKERELVAGITSGGNTNYADSVKGRFTISCDNAKNTVYLQMNSLKPEDTAVYSCNKKKRWQWYSESVLDYLGFYSWGQGTQVTVSS", "polyreactivity (PSR sort gate)": "low polyreactivity"}, {"sequence": "QVQLVESGGGLVQAGGSLRLSCAASGRTSRSYAMGWYRQAPGKERELVAAISWSGGSTYYADSVKGRFTMSRDNAKNTVYLQMNSLKPEDTAGYYCNALTLAGYDYWGQGTQVTVSS", "polyreactivity (PSR sort gate)": "high polyreactivity"}, {"sequence": "QVQLVESGGGLVQAGGSLRLSCAASGRTSSINAMGWYRKAPGKERELVAVITGGGRTSYADSVKGRFTISRDNAKNTVYLQMNSLKPEDTAVYYCNATRSYYGYYYWGQGTQVTVSS", "polyreactivity (PSR sort gate)": "high polyreactivity"}, {"sequence": "QVQLVESGGGLVQAGGSLRLSCAASGRTSTIYTMGWYRQAPGKEREIVASISAGAGTYYADSVKGRFTISRDNAKNTVYLQLNSLKPEDTAVYYCNASVYWRSTRRHQMDYWGQGTQVTVSS", "polyreactivity (PSR sort gate)": "high polyreactivity"}, {"sequence": "QVQLVESGGGLVQAGGSLRLSCAASGRTSVKYAMGWSRQAPGKERELVATIRYRTASTYYADSVKGRFTISRDNAKNTVYLQMNSPKPEDTAVYYCAAATSYASPWWYLYYYWGQGSQVTVSS", "polyreactivity (PSR sort gate)": "high polyreactivity"}, {"sequence": "QVQLVESGGGLVQAGGSLRLSCAASGRTSVLYAMGWYRQAPWKEREFVAAITWNSGSTYYADSVKGRFTISRDNAKNTVYLQMNSLKPEDTAVYYCNADYYFSSYRSTYDYWGQGTQVTVSS", "polyreactivity (PSR sort gate)": "low polyreactivity"}, {"sequence": "QVQLVESGGGLVQAGGSLRLSCAASGRTSVRNAMGWYRQAPGKERELVAAISRRGTRTYYADSVKGRFTISRDNAKNTVYLQMNSLKPEDTAVYYCAASNGYQAVTYDYWGQGTQVTVSS", "polyreactivity (PSR sort gate)": "high polyreactivity"}, {"sequence": "QVQLVESGGGLVQAGGSLRLSCAASGRTSVWYTMGWYRQAPGKEREFVASITGSGTYYADSVKGRFTISRDNAKNTVYLQMNSLKPEDTAVYYCAKRGYGYWGQGTQVTVSS", "polyreactivity (PSR sort gate)": "high polyreactivity"}, {"sequence": "QVQLVESGGGLVQAGGSLRLSCAASGRTSYLYALGWYRQAPGKERELVAAISRGVGSTYYADSVKGRFTISRDNAKNTVYLQMHSLKPEDTAVYYCAAYRYTPWMYYWGQGTQVTVSS", "polyreactivity (PSR sort gate)": "high polyreactivity"}, {"sequence": "QVQLVESGGGLVQAGGSLRLSCAASGRTSYTYVMGWYRQAPGTERELVAAIRLSGGNTYYADSVKGRFTISRDNAKNTVYLQMNSLKPEDTAVYYCAAHYWRHRKAYGYWGQGTQVTVSS", "polyreactivity (PSR sort gate)": "high polyreactivity"}, {"sequence": "QVQLVESGGGLVQAGGSLRLSCAASGRTSYVYAMGWYRQAPGKERELVAAITSSGASTYYADSVKGRFTISRDNAKNTVYLQMNSLKPEDTAVFYCAAETYPVWGVAFYYWGQGTQVTVSS", "polyreactivity (PSR sort gate)": "high polyreactivity"}, {"sequence": "QVQLVESGGGLVQAGGSLRLSCAASGRTVTYYVMGWYRQAPGNERELVARITSSGITYYADSVKGRFTISRDNAKNTVYLQMNSLKPEDTAVYYCAKRRNAWTPYRFDYWGQGTQVTVSS", "polyreactivity (PSR sort gate)": "high polyreactivity"}, {"sequence": "QVQLVESGGGLVQAGGSLRLSCAASGRTVVNAMGWYRQAPGKERELVAAISSNGGRTYYADSVKGRFTISRDNAKNTVYLQMNSLKPEDTAVYYCATRWIKGRKMDYWGQGTQVTVSS", "polyreactivity (PSR sort gate)": "high polyreactivity"}, {"sequence": "QVQLVESGGGLVQAGGSLRLSCAASGRTVVNAMGWYRQAPGKERELVAAISSNGGRTYYADSVKGRFTISRDNAKNTVYLQMTSLKPEDTAVYYCAKGLGIRPTYYYWGQGTKVTVSS", "polyreactivity (PSR sort gate)": "high polyreactivity"}, {"sequence": "QVQLVESGGGLVQAGGSLRLSCAASGRTVYANAMGWYRQAPGKERELVAAISTGGDGTYYADSVKGRFTISRDNAKNPVYLQMNSQKPEDTAVYYCAVRHRASGMLYDYWGQGTQVTVSS", "polyreactivity (PSR sort gate)": "low polyreactivity"}, {"sequence": "QVQLVESGGGLVQAGGSLRLSCAASGRTYFDYTMGWYRQAPGKERELVAAINRSGVSTYYADSVKGRFTISRDNAKNTVYLQMNSLKPEDTAVYYCNADRGPPKLEYDPVIMDYWGQGTQVTVSS", "polyreactivity (PSR sort gate)": "low polyreactivity"}, {"sequence": "QVQLVESGGGLVQAGGSLRLSCAASGRTYGYAMGWYRQAPGKERELVARNTWRGGSTSYADSVKGRFTISRDNAKNTVYLQMNSLKPEDTAVYYCAATYGTGRRSKYGYWGQGTQVTVSS", "polyreactivity (PSR sort gate)": "high polyreactivity"}, {"sequence": "QVQLVESGGGLVQAGGSLRLSCAASGRTYHAYAMGWYRQAPGKGRELVAAITRTGTTHYADSVKGRFTISRDNAKNTVYLQMTSLKPEDTAVYYCAAQHVRVDAQFVLQGYDYWGQGTQVTVSS", "polyreactivity (PSR sort gate)": "low polyreactivity"}, {"sequence": "QVQLVESGGGLVQAGGSLRLSCAASGRTYIVNVMGWYRQAPGKERELVAAINWSTGRTYYADSVKGRFTISRDNAKNTVYLQMNSLKPEDTAVYYCAAEEFDSFWWGYYEMDYWGQGTQVTVSS", "polyreactivity (PSR sort gate)": "high polyreactivity"}, {"sequence": "QVQLVESGGGLVQAGGSLRLSCAASGRTYPYAMGLYRQAPGKEREFVAAITSSGGSTYYADSVKGRFTISRDNAKNTVYLQMNSLKPEDTAVYYCAAEYYFLEYDYWGQGTQVTVSS", "polyreactivity (PSR sort gate)": "low polyreactivity"}, {"sequence": "QVQLVESGGGLVQAGGSLRLSCAASGRTYQDNAMGWYRQEPGTERELVAAISFNSDSTYYADSVKGRFTISRDNAKNTVYLQMNSLKPEDTAVYYCAAQVVPTLYLRPLDYWGQGTQVTVSS", "polyreactivity (PSR sort gate)": "low polyreactivity"}, {"sequence": "QVQLVESGGGLVQAGGSLRLSCAASGRTYRAYTMGWYRQAPGKERELVAAISTPGGSTYYADSVKGRFTISRDNAKKTVYLQMIILKPEDNAVYYCAAGTFYYWLSYDYWGQGTKVTVSS", "polyreactivity (PSR sort gate)": "low polyreactivity"}, {"sequence": "QVQLVESGGGLVQAGGSLRLSCAASGRTYRVYAMGWYRQAPGKERELVASITRGGGTYADSVKGRFTISRDNAKNTVYLQMNSLKAEDTAVYYCNARWHRSTGGRQRYDYWGQGTQVTVSS", "polyreactivity (PSR sort gate)": "high polyreactivity"}, {"sequence": "QVQLVESGGGLVQAGGSLRLSCAASGRTYSIYAMGLYRQEPGNEREMVAAISNGGRTKYADSVKGRFTISRDNAKNTVYLQMNSLKPEDTAVYYCAASSYTNKRYPSPYDYWGQGTQVTVSS", "polyreactivity (PSR sort gate)": "high polyreactivity"}, {"sequence": "QVQLVESGGGLVQAGGSLRLSCAASGRTYVRNAMGWYRQAPGKERELVAGITRSGGSTYYADSVKGRFTISRDNAKNTVYLQMNSLKPEDTAVYYCAKRYDVYVGTVRPYDYWGQGTQVTVSS", "polyreactivity (PSR sort gate)": "low polyreactivity"}]}]}
